This note sets out measurements from publication PMC8749428.

The target in one experiment is PltB-Strep. The experiment can be described thus: SEC.
Experiment [1] has as its target PltA-CdtB-His6 (Salmonella enterica serovar Typhi) (UniProt Q8Z6A7). The experiment can be described thus: pull-down.
Experiment [2] deals with PltC (untagged, His tag removed). In words: crystal structure.
A further experiment concerns the target PltC-His6. The experiment can be described thus: SEC. (Size exclusion chromatography separates by hydrodynamic size, large species first.)

Regarding PltB-Strep (natural protein), the stoichiometry N with PltB-Strep turned out to be 5.
“PltC (untagged, His tag removed) (natural protein)” showed a fold copurified relative to PltB in experiment [1] of 2 fold. In experiment [2], this substance registered a stoichiometry N of 5.
Regarding PltC-His6 (natural protein), the stoichiometry N with PltC-His6 worked out at 5.

For orientation: stoichiometry N means the number of molecules, sites or subunits per partner or assembly.
